Source: the nanobody polyreactivity screen of Harvey et al. (2022)

experiment: yeast display, Sf9 membrane polyspecificity reagent, FACS + sequencing; frameworks hold sequencing errors
Procedure, shortened: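 Using colony PCR, genes from sorted yeast display clones were amplified, then sequenced on MiSeq at 2 × 250 and filtered by CDR length. The clones had been stained with 10% biotinylated, detergent-solubilized Sf9 membrane reagent for 1 hour at 4 °C and sorted by FACS into low and high (top ~1%) gates on anti-HA and streptavidin fluorescence. Polyreactivity labels come from the gate of origin.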

Row | Sequence | polyreactivity (PSR sort gate)
1 | QVQLVESGGALLQAGGSLRLSCAASGGTFYDYAMGWYRQAPGKERELVAAISASGDSTYYADSVKGRFTISRDNAMNTVYLQMNSLKPEDTAVYYCAAEFTAFDGFDYWGQGTQVTVSS | low polyreactivity
2 | QDQLVESGGGLVQAGGSLRLSCAASGRFFKWYAMGWYRQAPGKEREFVAGISSSGTSTYYADSVKGRFTISRDNAKKTVSLQRNSLKPEDTAVYYCNKLGSTLDFGYWGQGTQVTVSS | high polyreactivity
3 | QVQVVESGGGLVQAGGSLRLSCAASGFTFILYAMGWYRQAPGKERELVAAISWSGGRTYYADSVKGRFTISRDNAKNTVYLQMNSLKPEDTAVYYCNAPYWTSKSRFDYWGQGTQVTVSS | low polyreactivity
4 | QVQLVESGGGLVQAGGSLRLSCAASGIIFVINAMGWYRQAPGKERELVATITGSGTTNYADSVKGRFTISRDNAKNTVYLQMNSLKPEDTAVYYCARDDTEYARTGAYDYWGQGTQVTVSS | low polyreactivity
5 | QVQLVESVGGLDQAGGSLRLSCAASGRIIAWYPMGWYRQSPGKERELVAAISWNGGRTYYADSVKGRFTISRDNAKNTVYLQINSLKPEDTAVYYCAAGKTPQKYGGFNSWGQGTQVTVSS | high polyreactivity
6 | QVQLVESGGGLVQAGGSLRLSCAASGSTFRYYAMGWYRQAPGKERELVAVISTSGNTYYADSVKGRFTISRDNAKNTVYFQMNSLKPEDTAVYYCAARGVGGQISQEYDYWGQGTQVTVSS | low polyreactivity
7 | QVQLVESGGGLVQAGGSLRLSCAASGGIFGPYAMGWYRQAPGKERELVATITRNGGSTRYADSVKGRFTISRDNAKNTVYLQMNSLKPEDTAVYYCAARGYLDMGYWGQGTQVTVSS | high polyreactivity
8 | QVQLLESGGGLVQAGGSLRLTCAASGFTFDLNAMGWYRQAPGKERELVAAISYSGDDTYYADSVKGRFTISRDNAKNTVYLQMNSLKPEDTAVYYCAADATWTYYQLYDYWGQGNQVTVSS | low polyreactivity
9 | QVQLVESGGGLVQAGVSLRLSCAASGRTFVWYVKGWYRQAPGKERELVAAINRSGGRTYYADSVKGRFTISRDNAKNTVYLQMNSLKPEDTAVYYCAAARYVRYYSGYWGQGTQVTVSS | high polyreactivity
10 | QDQLVESGGGLVQAGGSLRLSCAASGIIFHFNDMGWYRQAPGKERELVAAITSGGSTNYADSVKGRFTISRDNAKNTLYLQMNSLKPEDTAVYYCAARRGLRLFAYRHGYWGQGTQVTVSS | low polyreactivity
11 | QVQLVESGGALVQAGGSLRLSCAASGITFKPYGMGRYRQAPGKETELVADITSGGITYYADSVKGRFTISRDNAKNTVYLQMNSLKPEDTDVYYCAAVGGRSSYRLDYWGQGTQVTVSS | low polyreactivity
12 | QVQLVESGGGLVQAGGSLRLSSAASGSIFSAYAMGWYRQAPGKERELVATISRSGASTYYADSVKGRFTISRDNAKNTVYLQMNSLKPEDTAVYYCAARYYSPAYRLGGVDYWGQGTQVTVSS | high polyreactivity
13 | QVQLVESGGGLVQAGGSLRLSCAASGRTFSANAMGWYRQAPGKERELVATISSGGRTNYADSVKGRFTISRDNAMNTVYLQMNSLKPEDTAVYYCAADFDYAYWDTTYDYWGQGTQVTVSS | low polyreactivity
14 | QVQLVETGGGLVQAGGSLRLSCAASGRIYYVYDMGWYRQAPGKERELVAAISWSGGSTSYADSVKGRFTISRDNAKYTVYLQMNSLKPDDTAVYYCAATSAIGWGYDYWGQGTQVTVSS | low polyreactivity
15 | QVQLVESGGGLVQAGGNLRLSCAASGNIFYVYAMGWYRQAPGKERELVAAITRSGGRTYYADSVKGRFTISRDNAKNTVYLQMNSLKPEETAVYYCAADRGVTRQKMDYWGQGTQVTVSS | low polyreactivity
16 | QVQLVESGGGLVQAGGSLRLSCAASGIIFRYNTMGWYRQAPGKERELVAAISGGGRTYYADSVKGRFTISRDNAKNTVYLQMNSLKPEDTAVYYCAARYRTSGLDNYWGQGTQVTVSS | high polyreactivity
17 | QVQLVESGGGLVQAGGSLRLSCAASGFIFYSNAMGWYRQAPGKDRELVASITGDGGTTYYADSVKGRFTISRDKAKNTVYLQMNSLKPEATAVYYCAKDYIYRGYYTDFRYEDYDYWGPGTQVTVSS | low polyreactivity
18 | QDQLVESGGGLVQAGGSLRLSCSASGSIVGLYAMGWYRQAPGKERELVAAITASDGYTYYADSVKGRFTNSRDNAKNTVYLQMNSLKPEDTAVYYCNADAYSGYFLFDYWGQGTQVNVSS | low polyreactivity
19 | QVQLVESGGGLVQAGGSLRLSCAASGSTFTVYAMGWYRQAPGKERELVAAISESGTSTYYADSVKGRFTISRDNAKNTVYLQMNSLNPEDTAVYYCAADGPGTSEDDYWGQGTQVTVSS | high polyreactivity
20 | QVQLVESGGGLVQAGGSLRLSCAASGSTYERYAMGWYRQAPGKERELVAAISAIGDSTYYADSVKGRITISRDNANNTVYLQMNSLKPEDTAVYYCAARYTRYHIGRGYYYWGQGTQVTVSS | high polyreactivity
21 | QVQLVESGGGLVQAGASLRLSCAASGRTFAWYAMGWYRQAPGKERELVAAISSGGSTYYADSVKGRFTISRDNAKISVYLQMNSLKPEDTAVYDCAAEWHYIYAYDYWGQGTKVTVSS | low polyreactivity
22 | QVKLVESGGGLVPAGGSLRLSCAASGNIFVNYAMRWYRQAPGKERELVASINYNGGITYYADSVKGRFTISRDNAKNTVYLQMNSLKPEDTAVYDCDKDGGGLLRWYTDEYDYWGQGTQVTVSS | low polyreactivity

Row | Sequence | polyreactivity (PSR sort gate)
23 | QVQLVESGGGLVQAGGSLRLSCAASGYIFYYNTMGWYRQAPGKERELVAAISSAGSTNYADSVKGRFTISRDNAKNTVYLQMNSRKPEDTAVYYCAARTRFSYRRNSYGYWGQGTQVNVSS | high polyreactivity
24 | QVQLVESGGGLVPAGGSLRLSCAASGSIFGFYAMGWYRQSPGKERELVAGISYGDSSTYYADSVKGSFTISRDNAKNTVYLQMNSLKPEDTAVYYCAAGHRQKYNWGRYDYWGQGTQVTVSS | low polyreactivity
25 | QVQHVESGGGLVQAGGSLRLSCAASGRTLLGNAMGRYRQAPGKEREFVAAISYRGGSTYYADSVKGRFTISRDNAKNTVYLQMNSLKPEDTAVYYCAASSFKYSRFDYWGQGTQVTVSS | low polyreactivity
26 | QVQLVESGGGLVQAGGSLRLSCAASGFTFRENAMGWSRQAPGKERELVAAISSSGGSTYYADSVKGRFTISRDNAKNTVYLQMNSLKPEDTAVYYCAADATLSFDYWGQGTQVTVSS | high polyreactivity
27 | QVQLVESGGGLVQAGCSLRLSCAASGSIFSYYDMGSYRQAPGKERELVAGISRGGSTNYADSVKGRFTISRDNAKNTVYLQMNILKPEDTAVYYCNADQSSRTYPFRLSRRSLLYGYWGLGTQVTVSS | low polyreactivity
28 | QVQLVESGGGLVQAGGSLRLSCAASGRILAYYAMAWYRQAPGKERELVAAITSGGGSTYYADSVKGRFTISRDNAKNTVYLQMNSLKPEDTAVYYCAADAYVSSQPMDYWGQGSQVTVSS | high polyreactivity
29 | QVQLVESGGGLVQAGGSLRLSCAASGRTIGAYAMGWYRQAPGKEREFVAAITFGGGPTYYADSVKGRFTISRDNAKNTVYLQMNSLKPEDTAVYYCAKRIDLSLPYARYDYWGQVTQVTVSS | low polyreactivity
30 | QVQLVESGGGLVQAGGSLRLSCAASGGIDYTNAMGWYRQAPGKERELVAAIRKNGDSTNYADSVKGRFTISRDNAKNTVYLQMNSLKPEDTAVYYCNAELWPWAYDYWGQGTQVTVSS | low polyreactivity
31 | QVQLVESGGGLVQAGGSLRLSCAASGSTFGVYAMGWYRQAPGKERELVAAISGSGAGTYYADSVKGRFTISRDNAKNTVYLQMNSLKPEDTAVYYCAAETYYSIYDYWGQGTQVTVSS | high polyreactivity
32 | QVQLVESGGGLVQAGGSLRLSCAASGGTFVYYTMGWYRQAPGKERELVAAISGRGGRTYYADSVKGRFTISRDNAKQTVYLQMNSLKPEDPAVYYCTATQIGPYYLPFDSWGQGTQVTVSS | high polyreactivity
33 | QVQLVESGGGLVQAGGSLRLSCAASGRIFGPYAMGWYRQAPGTERELVAAIRASSSSTYYADSVKGRFTISRDNAKNTVYLQMNSLKPEDTAVYYCAADWYYGYAWKYGYWGQGTQVTVSS | low polyreactivity
34 | QVQLVESGGGLVQAGGSLRLSCAASGSIFVRNAMGWYRQAPGKERELVAAITYRGGSTYYADSVKGRFTISRDNAKNTVYLQMNSLKPEDTAVYYCAARYWQSYRSQVTHSSTLDYWGQGTQVTVSS | low polyreactivity
35 | KVQLVESGGGLVQAGGSLRLSCAASGLILWYYAMGWAIQAPGKERELVAAISRYGASTYYADSVKGRFTISRDNAKNTDYLQLNSLKPEDTAVYYCATGSSRYRHQRDYLGQGTQVTVSS | high polyreactivity
36 | QVQLVESGGGLVQAGGSLRLSCAASGRIFRAYVMGWYRQAPGKERELVATIDSGTSTYYADSVKGRFTISRDNAKNTVYLQMNSLKPEDTAVYYCAVPSHSRVPESFDYWGQGTQVTVSS | low polyreactivity
37 | QVQLVESGGGLVQAGGSLRLSCAASGGTFYLNAMGWYRQAPGKERELVAAISKRSSTTYYADSVKGRFTISRDNAKNTVYLQMNSLKPEDTAVYYCAAEYFDWWVTYDYWGQGTQVTVSS | high polyreactivity
38 | QVQLVESGGGLVQAGGSLRLSCAASVSIFISYAMGWYRQAPGKERELVAAISSGGSTNYADSVKGRFTISRDNAKNTVYLQMNSLKPEDTAVYYCAADGWLWSFTGDGWWFDDWGQGTQVTVSS | low polyreactivity
39 | QVQLVESGGGLVQAGGSLRLSCAASGIFLGYAMGWYRQAPGKERELVAGISSGGGTYYADSVKGRFTISRDNAKNTVYLQMNSLKPEDTAVYYCNAASQYTFDSSFDYWGQGTQVTVSS | low polyreactivity
40 | QVQLVESGGGLVQAGGSLRLSCAASGSTFGDYAMGWYRPAPGKERELVAAITIGGITTYADSVKGRFTISRDNAKNTVYLQMNSLKPEDTAVYYCAAAERGDWDDYWGQGTQVTVSS | low polyreactivity
41 | QVQLVESGGGLVQAGGSLRLSCAASGRIFWINAMGWYRQAPGKERELVATISSGSTSYADSVKGRFTISRDNAKNTVYLQMNSLKPEDTAVYYCAADFVFRWYSYTGRWYSSYDYWGQGTQVTVSS | low polyreactivity
42 | QVQLVESGGGLVQAGGSLRLSCAASGSTFGRNARGWYRQAPGKERELVAAITASGGTTYYADSVKGRFTISRDNAKNTVYLQMNSLKPEDTAVYYCNVSYLVYRWNFGWSMDFWGQGTQLTVSS | low polyreactivity
43 | QVQLVESGGGLVQAGGSLRLSCAASGSTFTGNAMGWSRQAPGKERELVAAITDRGGSTYADSVKGRFTISRDNAKNTVYLQMNSLKPEDSAVYYCATRRDLHDRYEYDYWGQGTQVTVSS | low polyreactivity
